# Laboratory results: patent US20180186873A1 (CEPHALON, published 2018)
# Several values for one entry are separate records, joined by “and”; a condition that tells them apart may be missing. Equal entries are not always repeated.
# Tests used:
# [1] = target: T1, recombinant human IL-5 (human, UniProt P05113 20-134); assay: SPR, Ab supernatant on Protein A chip, IL-5 analyte, run 3.2, average of 5
# [2] = target: T1, recombinant human IL-5; assay: SPR, purified Ab on Protein A chip, IL-5 analyte, run 3.2
# [3] = target: T2, recombinant human IL-5 (human, UniProt P05113 20-134); assay: SPR Biacore, purified Ab on Protein A chip, human IL-5 analyte, run 4.1
# [4] = target: T2, recombinant human IL-5; assay: SPR Biacore, Ab on Protein A chip, human IL-5 analyte, run 4.1, replicate 5
# [5] = target: T2, recombinant human IL-5; assay: SPR Biacore, Ab on Protein A chip, human IL-5 analyte, run 4.1, average
# [6] = target: T2, recombinant human IL-5; assay: SPR Biacore, Ab on Protein A chip, human IL-5 analyte, run 4.1, replicate 2
# [7] = target: T2, recombinant human IL-5; assay: SPR Biacore, Ab on Protein A chip, human IL-5 analyte, run 4.1, replicate 3
# [8] = target: T2, recombinant human IL-5; assay: SPR Biacore, Ab on Protein A chip, human IL-5 analyte, run 4.1, replicate 1
# [9] = target: T2, recombinant human IL-5; assay: SPR Biacore, Ab on Protein A chip, human IL-5 analyte, run 4.1, replicate 4
# [10] = target: T3, recombinant human IL-5 (human, UniProt P05113 20-134); assay: Biacore SPR, Ab supernatant on Protein A chip, average of replicates
# [11] = target: T3, recombinant human IL-5; assay: Biacore SPR, purified Ab on Protein A chip
# [12] = target: T3, recombinant human IL-5; assay: Biacore SPR, Ab supernatant on Protein A chip
# [13] = target: T4, recombinant human IL-5 (human, UniProt P05113 20-134); assay: Biacore SPR run 5.1
# [14] = target: T4, recombinant human IL-5; assay: Biacore SPR run 5.1; remark: listed apart in the source
# [15] = target: T4, recombinant human IL-5; assay: Biacore SPR run 5.1; remark: listed apart in the source
# [16] = target: recombinant human IL-5 (human, UniProt P05113 20-134); assay: SPR
binder,measurement,setting,value
"3A5.040 (antibody, human IgG4 S228P, lambda) heavy: not shown light: SYVLTQPPSVSVAPGQTARITCGGNNIGSKNVYWYQQKPGQAPVLVVHDDSDRPSGIPERFSGSNSGNTATLTISRVEVGDEADYSCQVWDSSSDHVVFGGGTKLTVLGQPKAAPSVTLFPPSSEELQANKATLVCLISDFYPGAVTVAWKADSSPVKAGVETTTPSKQSNNKYAASSYLSLTPEQWKSHRSYSCQVTHEGSTVEKTVAPTECS [3A5.040, listing 1 of 4 here]",Kd,[1],0.131 nM
same,koff,[1],9.07e-05 s⁻¹
same,kon,[1],695000 M⁻¹ s⁻¹
same,Kd,[2],0.116 nM
same,koff,[2],8.25e-05 s⁻¹
same,kon,[2],712000 M⁻¹ s⁻¹
"3A5.040 (antibody, human IgG4 S228P, lambda) heavy: not shown light: SYVLTQPPSVSVAPGQTARITCGGNNIGSKNVYWYQQKPGQAPVLVVHDDSDRPSGIPERFSGSNSGNTATLTISRVEVGDEADYSCQVWDSSSDHVVFGGGTKLTVLGQPKAAPSVTLFPPSSEELQANKATLVCLISDFYPGAVTVAWKADSSPVKAGVETTTPSKQSNNKYAASSYLSLTPEQWKSHRSYSCQVTHEGSTVEKTVAPTECS [3A5.040, listing 2 of 4 here]",Kd,[3],0.103 nM
same,koff,[3],0.000109 s⁻¹
same,kon,[3],1.06e+06 M⁻¹ s⁻¹
same,Kd,[4],0.0937 nM
same,koff,[4],9.29e-05 s⁻¹
same,kon,[4],991000 M⁻¹ s⁻¹
same,Kd,[5],0.106 nM
same,koff,[5],0.000107 s⁻¹
same,kon,[5],1.01e+06 M⁻¹ s⁻¹
same,Kd,[6],0.104 nM
same,koff,[6],0.000107 s⁻¹
same,kon,[6],1.02e+06 M⁻¹ s⁻¹
same,Kd,[7],0.109 nM
same,koff,[7],0.000112 s⁻¹
same,kon,[7],1.03e+06 M⁻¹ s⁻¹
same,Kd,[8],0.116 nM
same,koff,[8],0.000116 s⁻¹
same,kon,[8],1e+06 M⁻¹ s⁻¹
same,Kd,[9],0.105 nM
same,koff,[9],0.000106 s⁻¹
same,kon,[9],1.01e+06 M⁻¹ s⁻¹
"3A5.040 (antibody, human IgG4 S228P, lambda) heavy: not shown light: SYVLTQPPSVSVAPGQTARITCGGNNIGSKNVYWYQQKPGQAPVLVVHDDSDRPSGIPERFSGSNSGNTATLTISRVEVGDEADYSCQVWDSSSDHVVFGGGTKLTVLGQPKAAPSVTLFPPSSEELQANKATLVCLISDFYPGAVTVAWKADSSPVKAGVETTTPSKQSNNKYAASSYLSLTPEQWKSHRSYSCQVTHEGSTVEKTVAPTECS [3A5.040, listing 3 of 4 here]",Kd,[10],0.149 nM
same,koff,[10],0.000105 s⁻¹
same,kon,[10],703000 M⁻¹ s⁻¹
same,Kd,[11],0.092 nM
same,koff,[11],6.63e-05 s⁻¹
same,kon,[11],721000 M⁻¹ s⁻¹
same,Kd,[12],0.148 nM and 0.149 nM
same,koff,[12],0.000103 s⁻¹ and 0.000106 s⁻¹
same,kon,[12],696000 M⁻¹ s⁻¹ and 710000 M⁻¹ s⁻¹
"3A5.481 (antibody, human IgG4 S228P, lambda, name in Kabat numbering, V domains shown) VH: QVQLQESGPGLVKPSQTLSLTCTVSGGSISNGGYYWSWIRQHPGKGLEWIGYIYYSGSTYYNPSLKSRVTISVDTSKNQFSLKLSSVTAADTAVYYCSSLGNWFDYWGQGTLVTVSS VL: SYVLTQPPSVSVAPGQTARITCGGNNIGSKNVYWYQQKPGQAPVLVVHDDSDRPSGIPERFSGSNSGNTATLTISRVEVGDEADYSCQVWDSSSDHVVFGGGTKLTVLG",% 3A5.040 kd,[12],112%
same,Kd,[12],0.13 nM
"3A5.482 (antibody, human IgG4 S228P, lambda, name in Kabat numbering, V domains shown) VH: QVQLQESGPGLVKPSQTLSLTCTVSGGSISNGGYYWSWIRQHPGKGLEWIGYIYYSGSTYYNPSLKSRVTISVDTSKNQFSLKLSSVTAADTAVYYCLSLGNWFDYWGQGTLVTVSS VL: SYVLTQPPSVSVAPGQTARITCGGNNIGSKNVYWYQQKPGQAPVLVVHDDSDRPSGIPERFSGSNSGNTATLTISRVEVGDEADYSCQVWDSSSDHVVFGGGTKLTVLG",% 3A5.040 kd,[12],52%
same,Kd,[12],0.79 nM
"3A5.485 (antibody, human IgG4 S228P, lambda, name in Kabat numbering, V domains shown) VH: QVQLQESGPGLVKPSQTLSLTCTVSGGSISNGGYYWSWIRQHPGKGLEWIGYIYYSGSTYYNPSLKSRVTISVDTSKNQFSLKLSSVTAADTAVYYCQSLGNWFDYWGQGTLVTVSS VL: SYVLTQPPSVSVAPGQTARITCGGNNIGSKNVYWYQQKPGQAPVLVVHDDSDRPSGIPERFSGSNSGNTATLTISRVEVGDEADYSCQVWDSSSDHVVFGGGTKLTVLG",% 3A5.040 kd,[12],105%
same,Kd,[12],0.154 nM
"3A5.490 (antibody, human IgG4 S228P, lambda, name in Kabat numbering, V domains shown) VH: QVQLQESGPGLVKPSQTLSLTCTVSGGSISNGGYYWSWIRQHPGKGLEWIGYIYYSGSTYYNPSLKSRVTISVDTSKNQFSLKLSSVTAADTAVYYCAALGNWFDYWGQGTLVTVSS VL: SYVLTQPPSVSVAPGQTARITCGGNNIGSKNVYWYQQKPGQAPVLVVHDDSDRPSGIPERFSGSNSGNTATLTISRVEVGDEADYSCQVWDSSSDHVVFGGGTKLTVLG",Kd,[12],0.128 nM
"3A5.491 (antibody, human IgG4 S228P, lambda, name in Kabat numbering, V domains shown) VH: QVQLQESGPGLVKPSQTLSLTCTVSGGSISNGGYYWSWIRQHPGKGLEWIGYIYYSGSTYYNPSLKSRVTISVDTSKNQFSLKLSSVTAADTAVYYCALLGNWFDYWGQGTLVTVSS VL: SYVLTQPPSVSVAPGQTARITCGGNNIGSKNVYWYQQKPGQAPVLVVHDDSDRPSGIPERFSGSNSGNTATLTISRVEVGDEADYSCQVWDSSSDHVVFGGGTKLTVLG",% 3A5.040 kd,[12],13%
same,Kd,[12],1.52 nM
"3A5.492 (antibody, human IgG4 S228P, lambda, name in Kabat numbering, V domains shown) VH: QVQLQESGPGLVKPSQTLSLTCTVSGGSISNGGYYWSWIRQHPGKGLEWIGYIYYSGSTYYNPSLKSRVTISVDTSKNQFSLKLSSVTAADTAVYYCAYLGNWFDYWGQGTLVTVSS VL: SYVLTQPPSVSVAPGQTARITCGGNNIGSKNVYWYQQKPGQAPVLVVHDDSDRPSGIPERFSGSNSGNTATLTISRVEVGDEADYSCQVWDSSSDHVVFGGGTKLTVLG",% 3A5.040 kd,[12],10%
same,Kd,[12],3.37 nM
"3A5.494 (antibody, human IgG4 S228P, lambda, name in Kabat numbering, V domains shown) VH: QVQLQESGPGLVKPSQTLSLTCTVSGGSISNGGYYWSWIRQHPGKGLEWIGYIYYSGSTYYNPSLKSRVTISVDTSKNQFSLKLSSVTAADTAVYYCAQLGNWFDYWGQGTLVTVSS VL: SYVLTQPPSVSVAPGQTARITCGGNNIGSKNVYWYQQKPGQAPVLVVHDDSDRPSGIPERFSGSNSGNTATLTISRVEVGDEADYSCQVWDSSSDHVVFGGGTKLTVLG",% 3A5.040 kd,[12],16%
same,Kd,[12],0.945 nM
"3A5.496 (antibody, human IgG4 S228P, lambda, name in Kabat numbering, V domains shown) VH: QVQLQESGPGLVKPSQTLSLTCTVSGGSISNGGYYWSWIRQHPGKGLEWIGYIYYSGSTYYNPSLKSRVTISVDTSKNQFSLKLSSVTAADTAVYYCAHLGNWFDYWGQGTLVTVSS VL: SYVLTQPPSVSVAPGQTARITCGGNNIGSKNVYWYQQKPGQAPVLVVHDDSDRPSGIPERFSGSNSGNTATLTISRVEVGDEADYSCQVWDSSSDHVVFGGGTKLTVLG",% 3A5.040 kd,[12],2%
same,Kd,[12],2.11 nM
"3A5.040 (antibody, human IgG4 S228P, lambda) heavy: not shown light: SYVLTQPPSVSVAPGQTARITCGGNNIGSKNVYWYQQKPGQAPVLVVHDDSDRPSGIPERFSGSNSGNTATLTISRVEVGDEADYSCQVWDSSSDHVVFGGGTKLTVLGQPKAAPSVTLFPPSSEELQANKATLVCLISDFYPGAVTVAWKADSSPVKAGVETTTPSKQSNNKYAASSYLSLTPEQWKSHRSYSCQVTHEGSTVEKTVAPTECS [3A5.040, listing 4 of 4 here]",Kd,[13],0.153 nM
same,koff,[13],0.000108 s⁻¹
same,kon,[13],707000 M⁻¹ s⁻¹
same,Kd,[14],0.186 nM and 0.175 nM and 0.187 nM and 0.177 nM
same,koff,[14],0.000122 s⁻¹ and 0.000112 s⁻¹ and 0.000125 s⁻¹ and 0.000117 s⁻¹
same,kon,[14],656000 M⁻¹ s⁻¹ and 643000 M⁻¹ s⁻¹ and 667000 M⁻¹ s⁻¹ and 663000 M⁻¹ s⁻¹
same,Kd,[15],0.181 nM
same,koff,[15],0.000119 s⁻¹
same,kon,[15],657000 M⁻¹ s⁻¹
"3A5.495 (antibody, human IgG4 S228P, lambda, name in Kabat numbering, V domains shown) VH: QVQLQESGPGLVKPSQTLSLTCTVSGGSISNGGYYWSWIRQHPGKGLEWIGYIYYSGSTYYNPSLKSRVTISVDTSKNQFSLKLSSVTAADTAVYYCAKLGNWFDYWGQGTLVTVSS VL: SYVLTQPPSVSVAPGQTARITCGGNNIGSKNVYWYQQKPGQAPVLVVHDDSDRPSGIPERFSGSNSGNTATLTISRVEVGDEADYSCQVWDSSSDHVVFGGGTKLTVLG",% 3A5.040 kd,[16],34%
same,Kd,[16],0.431 nM
"3A5.497 (antibody, human IgG4 S228P, lambda, name in Kabat numbering, V domains shown) VH: QVQLQESGPGLVKPSQTLSLTCTVSGGSISNGGYYWSWIRQHPGKGLEWIGYIYYSGSTYYNPSLKSRVTISVDTSKNQFSLKLSSVTAADTAVYYCAWLGNWFDYWGQGTLVTVSS VL: SYVLTQPPSVSVAPGQTARITCGGNNIGSKNVYWYQQKPGQAPVLVVHDDSDRPSGIPERFSGSNSGNTATLTISRVEVGDEADYSCQVWDSSSDHVVFGGGTKLTVLG",% 3A5.040 kd,[16],3%
same,Kd,[16],1.75 nM
"3A5.498 (antibody, human IgG4 S228P, lambda, name in Kabat numbering, V domains shown) VH: QVQLQESGPGLVKPSQTLSLTCTVSGGSISNGGYYWSWIRQHPGKGLEWIGYIYYSGSTYYNPSLKSRVTISVDTSKNQFSLKLSSVTAADTAVYYCAPLGNWFDYWGQGTLVTVSS VL: SYVLTQPPSVSVAPGQTARITCGGNNIGSKNVYWYQQKPGQAPVLVVHDDSDRPSGIPERFSGSNSGNTATLTISRVEVGDEADYSCQVWDSSSDHVVFGGGTKLTVLG",% 3A5.040 kd,[16],85%
same,Kd,[16],0.263 nM
